In the assay the target is T1, His6-Tim44(43–263) (Saccharomyces cerevisiae (strain ATCC …, UniProt Q01852)).
T1 chain: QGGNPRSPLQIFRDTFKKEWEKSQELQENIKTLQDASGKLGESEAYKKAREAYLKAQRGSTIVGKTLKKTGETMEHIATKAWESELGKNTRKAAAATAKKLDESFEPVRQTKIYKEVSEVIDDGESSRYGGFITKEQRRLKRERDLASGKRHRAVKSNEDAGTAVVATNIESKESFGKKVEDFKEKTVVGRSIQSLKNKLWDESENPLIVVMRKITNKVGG
Put plainly: Ni-NTA pull-down, Coomassie-stained SDS-PAGE.

B1: Tim44(211–431) (protein)
chain: NIESKESFGKKVEDFKEKTVVGRSIQSLKNKLWDESENPLIVVMRKITNKVGGFFAETESSRVYSQFKLMDPTFSNESFTRHLREYIVPEILEAYVKGDVKVLKKWFSEAPFNVYAAQQKIFKEQDVYADGRILDIRGVEIVSAKLLAPQDIPVLVVGCRAQEINLYRKKKTGEIAAGDEANILMSSYAMVFTRDPEQIDDDETEGWKILEFVRGGSRQFT
With B1, the binding result is “no binding”.

Values taken from PMC4749553 (2015).
